Molecular target: T1, Smad3 phosphorylated at the C-terminus (pSmad3C) (human (endogenous in ES-2), UniProt P84022 1-425, phospho-serines 423/425 (C-terminal SSXS motif))
T1 construct: Smad3, endogenous in human ES-2 ovarian cancer cells, precipitated with α-pSmad3C (raised against phospho-serines 423/425 of Smad3); The α-pSmad3C antibody cross-reacts with C-terminus phosphorylated Smad2; In 2ME2-arrested cells Smad3 is also phosphorylated on threonine 179, but pSmad3(179) was detected inconsistently in the immunoprecipitates; also called C-terminally phosphorylated Smad3; …
T1 sequence (P84022 whole entry): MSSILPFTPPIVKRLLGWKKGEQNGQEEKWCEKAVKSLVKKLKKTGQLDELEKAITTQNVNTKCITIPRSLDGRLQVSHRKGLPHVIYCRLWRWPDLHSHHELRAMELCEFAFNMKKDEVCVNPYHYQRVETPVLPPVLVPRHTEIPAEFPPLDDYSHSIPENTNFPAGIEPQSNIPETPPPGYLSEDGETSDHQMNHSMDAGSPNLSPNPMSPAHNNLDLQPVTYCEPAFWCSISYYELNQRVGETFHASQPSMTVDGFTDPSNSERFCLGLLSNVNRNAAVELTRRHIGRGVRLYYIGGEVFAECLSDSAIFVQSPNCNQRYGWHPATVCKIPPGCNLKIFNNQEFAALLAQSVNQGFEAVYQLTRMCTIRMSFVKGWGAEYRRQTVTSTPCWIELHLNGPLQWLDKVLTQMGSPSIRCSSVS
Assay: co-IP; immunoprecipitation with α-pSmad3C (overnight, 4°C) and protein A-sepharose from lysates of 10^8 ES-2 cells treated with TGF-β1 (1 h) or 2ME2 (16 h); 420 mM NaCl, 50 mM Hepes pH 7.8, 5 mM EDTA, 1% NP-40, 3% DTT; blots with α-Ski, α-Smurf2, α-tSmad2/3; control: sepharose beads alone
Details: partners not purified

B1: Ski (natural protein, human (endogenous in ES-2), UniProt P12755 1-728, looked up)
chain: MEAAAGGRGCFQPHPGLQKTLEQFHLSSMSSLGGPAAFSARWAQEAYKKESAKEAGAAAVPAPVPAATEPPPVLHLPAIQPPPPVLPGPFFMPSDRSTERCETVLEGETISCFVVGGEKRLCLPQILNSVLRDFSLQQINAVCDELHIYCSRCTADQLEILKVMGILPFSAPSCGLITKTDAERLCNALLYGGAYPPPCKKELAASLALGLELSERSVRVYHECFGKCKGLLVPELYSSPSAACIQCLDCRLMYPPHKFVVHSHKALENRTCHWGFDSANWRAYILLSQDYTGKEEQARLGRCLDDVKEKFDYGNKYKRRVPRVSSEPPASIRPKTDDTSSQSPAPSEKDKPSSWLRTLAGSSNKSLGCVHPRQRLSAFRPWSPAVSASEKELSPHLPALIRDSFYSYKSFETAVAPNVALAPPAQQKVVSSPPCAAAVSRAPEPLATCTQPRKRKLTVDTPGAPETLAPVAAPEEDKDSEAEVEVESREEFTSSLSSLSSPSFTSSSSAKDLGSPGARALPSAVPDAAAPADAPSGLEAELEHLRQALEGGLDTKEAKEKFLHEVVKMRVKQEEKLSAALQAKRSLHQELEFLRVAKKEKLREATEAKRNLRKEIERLRAENEKKMKEANESRLRLKRELEQARQARVCDKGCEAGRLRAKYSAQIEDLQVKLQHAEADREQLRADLLREREAREHLEKVVKELQEQLWPRARPEAAGSEGAAELEP
notes: Ski, endogenous in human ES-2 ovarian cancer cells, detected with α-Ski (Santa Cruz); source: endogenous, ES-2 cell lysate
fold increase of the Ski/tSmad3 ratio in the anti-pSmad3C immunoprecipitate, 2ME2-arrested cells relative to TGF-β1-activated cells: 7.7 ± 1.7 fold
